# Reference: the supplement of paper PMC10567573
# ± gives the standard deviation.
# Assay: protein stability index of a GFP-peptide fusion (GPS, HEK-293T) (PSI 1-6); higher = more stable
# Details: c terminus: a fixed tail appended
# 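Further: 24-mer peptide tiles fused after GFP, lentivirally expressed, FACS-sorted into six equal bins by GFP/DsRed ratio, decoded by Illumina sequencing, PSI is the read-weighted mean bin number.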
Sequence,protein stability index (treatment: DMSO),"protein stability index (treatment: MLN4924 1 uM, 8 h)"
IKRAEDYGPVEVISHWHPNITINI [CLPTM1],3.11 ± 0.39,2.68 ± 0.14
KANSPLKGHERTVQYLQHLGTENL [VPS39],3.85 ± 0.3,3.71 ± 0.31
ASKDPREVREARDHKEPKEEINKN [EHMT1],5.5 ± 0.2,5.66 ± 0.29
HQCHKVIRGRYLVALGHAYHPEEF [PDLIM7],2.17 ± 0.29,2.2 ± 0.62
LGPSGLQNHGQHLILSREASWAKP [LCOR],3.08 ± 0.19,3.18 ± 0.2
IFSIVFVFFVCFVPYHIARIPYTK [P2RY14],3.1 ± 0.21,3 ± 0.49
YFCYKAILEFAEKEGMVSSGQNLL [PTPN9],2.2 ± 0.31,2.38 ± 0.46
GGTPHCEPCQLPSESPGSLSEVLA [DNAAF3],4.19 ± 0.49,4.56 ± 0.33
EGYAHLTHLLMGLASGRIILILEG [HDAC6],2.91 ± 0.56,3.09 ± 0.041
TCVYIAEIAPQHRRGLLVSLNELM [SLC2A12],2.73 ± 0.6,2.46 ± 0.56
RCACAASSDESPGSKCSPEDLATA [TTC32],3.83 ± 0.49,4.08 ± 0.23
GIKAQVALRLAELARRRRRRQARR [NOP53],4.1 ± 0.34,3.85 ± 0.25
FLKKSQLTEHKRIHTGKKPHVCSL [ZNF649],2.76 ± 0.36,2.75 ± 0.36
DIARMLYKDTCHELDELQLCKNCF [ZMYND11],2.27 ± 0.14,2.52 ± 0.49
LRLFGRVLERAACLRRCKRTLPAF [P3H4],2.37 ± 0.46,2.16 ± 0.53
NHFVWRLIPVPMATQIQQLLQDKQ [VPS39],2.3 ± 0.44,2.16 ± 0.31
LLRTFDAGEFTGWEKVGSGGFGQV [RIPK4],2.43 ± 0.56,2.53 ± 0.094
KLPATMPEPVYFHCAAVTPAGCMY [KLHDC10],2.27 ± 0.23,2.08 ± 0.19
RALKFRERDALEAVFRFWAGGEKG [DNAAF3],2.32 ± 0.07,2.59 ± 0.43
YLEVLETMDNKKGRRYEAVKWMVV [CLCN6],2.4 ± 0.72,2.25 ± 0.28
NSALKDKEDQFGRTPLMYCVLADR [INVS],3.37 ± 0.4,3.23 ± 0.37
LTKDEAAAHLKLTSIEEGYERSFI [IQUB],3.58 ± 0.39,3.43 ± 0.16

Sequence,protein stability index (treatment: DMSO),"protein stability index (treatment: MLN4924 1 uM, 8 h)"
KIKAIMALVAAILLLVIIILIVMK [VAMP4],2.47 ± 0.51,2.41 ± 0.8
RCPSSSLHMSQRERTWPPPAMSPY [C22orf15],2.89 ± 0.3,2.9 ± 0.27
PEDLAQLEELIDMAVLEEIQQELI [RPAIN],2.54 ± 0.14,2.89 ± 0.41
DINGLRRILDELTLCKADLEAQVE [KRT36],3.02 ± 0.33,3.14 ± 0.25
ALKDSLRPKLSEEQQRIIAILLDA [VDR],2.44 ± 0.2,2.44 ± 0.41
KCFSCNSNLHRHQRTHTGEKPYKC [ZNF263],3.5 ± 0.1,3.45 ± 0.15
LVAGIGFYQHLLLYIQSHYQLELQ [SMG5],2.99 ± 0.5,3.11 ± 0.43
DKNRCELLSFLLLMDYIGINLATM [EDNRA],2.77 ± 0.49,2.92 ± 0.32
YPFVLFYSKFHGLEMCVDARTFGN [KMT2E],2.87 ± 0.51,2.28 ± 0.33
QQAALPRLSRRMASQHSYPLNRFS [CBY2],3.38 ± 0.31,3.45 ± 0.31
RDVVLCSLLNFLPEGVNKLKISPV [TENT5C],2.2 ± 0.44,2.02 ± 0.43
RITQYLDAGGIPRTAQSEETRVWH [CAMK2A],3.03 ± 0.29,3.24 ± 0.39
SLTDSVNHHSPGGSSDASGSYSST [ESRRG],4.99 ± 0.28,5.1 ± 0.15
PEDRPSLDDIIRHDFFLQGFTPDR [PLK2],4.35 ± 0.12,4.27 ± 0.29
DISERPSVDDIESETGSTGALETR [C2CD2L],5.56 ± 0.22,5.59 ± 0.34
IRAAKGLDQALKEGGKLPPPPPPS [ZC2HC1A],4.35 ± 0.24,4.48 ± 0.4
VHQRTHTGEKPHTCSECGKGFIQK [ZNF649],3.67 ± 0.28,3.52 ± 0.58
QQQHVSCQVFPERLAQGNPQQGFF [ATP23],3.5 ± 0.34,3.28 ± 0.39
CHEDVEALAAIYEEKEAWYREESD [DAPK3],5.1 ± 0.22,5.12 ± 0.62
LFQTHENREHLVMMEKILGPIPSH [CLK3],2.85 ± 0.3,3.1 ± 0.15
QLLSERFGRGSRTVDLELELQIEL [ARFIP2],2.58 ± 0.46,2.99 ± 0.94
ARSPSGPSGSLENGTKADGKDAKT [TRIM29],5.4 ± 0.19,5.54 ± 0.094
